From patent US12472152B2, “Molecular entrapment via homopolymer self-assembly” (Northwestern University, priority 2019, dated 2025)
Each block holds one compound with its values, some of them ahead of it.

Legend:
[1] = Loading experiments: encapsulation efficiency during PPSU20 self-assembly (fluorescence of supernatant); assay type: physicochemical
Method: Loading experiments. For the loading of Nile red, nanogels were prepared using pure water and Nile red-containing (0.1 mg/mL) DMSO solutions of PPSU20. For the loading of water-soluble drugs, aqueous solutions of FITC (0.05 mg/mL), doxorubicin hydrochloride (1 mg/mL), dextran (1 mg/mL), albumin (various concentrations), GFP (0.2 mg/mL), RNA (0.2 mg/mL), DNA (0.2 mg/mL), and DMSO solutions of PPSU20 (25 mg/mL) were used. Typically, 100 μL of the corresponding aqueous solution were mixed stepwise (10 μL/step or 100 μL/step) with 50 μL of PPSU20 solution under vortex, then another 400 μL of water was added. After centrifugation at 16000×g for 10 min, fluorescence of the supernatant was measured and the encapsulation efficiencies were calculated.

[2] = PPSU nanogel biodistribution and toxicity after subcutaneous injection; assay type: in vivo; conditions: mice, s.c. injection, 48 h, NIRF/IVIS
Method: Assessment of PPSU NBM biodistribution and toxicity: Preliminary assessment of vesicular PPSU nanogel biodistribution 48 h after subcutaneous (s.c.) injection (relevant for vaccination) was performed using near infrared fluorescence (NIRF) agent cardiogreen (ICG) as previously published by the Scott lab^1.

[3] = Solubility tests using PPSU20 crystals in water and common organic solvents; assay type: physicochemical; conditions: in words
From the text: PPSU can be synthesized from complete oxidation of poly(propylene sulfide) (PPS) (14, 15), which is known for its hydrophobic—hydrophilic transition upon oxidation (16-18). However, complete oxidation of PPS had not been previously achieved, since standard oxidation of PPS generates random copolymers of poly(propylene sulfoxide)-co-poly(propylene sulfone) (19). We successfully synthesized PPSU20 (20 sulfones, FIG. 5) using an atypically high concentration of H2O2. Highly concentrated H2O2 was generated in situ upon vacuum evaporation during the oxidizing reaction. […] Given that the chemical structure of PPSU (FIG. 1a) is characterized by a positively charged backbone with negatively charged pendent oxygen atoms (20), electrostatic repulsion among oxygen atoms (21) was expected to result in weak inter- and intra-chain associations.

[4] = Adsorption of FITC-BSA by preformed PPSU20 vesicular nanogels; assay type: physicochemical; conditions: fluorescence in 0.2 N NaOH
Method: PPSU20 vesicular nanogels were prepared by mixing 100 μL of water or 100 μL of aqueous FITC-BSA (1.0 mg/mL) solution with 100 μL of PPSU20 solution (25 mg/mL in DMSO) under vortex, followed by the addition of 1000 μL of water. Nanogels were collected by centrifugation and purified by 2 rounds of resuspension and centrifugation in 1000 μL of water. The preformed blank vesicular nanogels were further incubated with 100 μL of aqueous FITC-BSA (1.0 mg/mL) solution overnight, giving FITC-BSA-adsorbed nanogels after removal of free FITC-BSA by three rounds of centrifugation and resuspension in water. Blank nanogels, FITC-BSA-loaded nanogels, and FITC-BSA-adsorbed nanogels were resuspened in 1000 μL of water for fluorescence measurements or as the stocking solutions for fluorescence quantitative analysis in sodium hydroxide solution (0.2 N).

[5] = PPSU20 vesicular nanogels formed with a concentration series of FITC-BSA (DLS, zeta potential, encapsulation); assay type: physicochemical
trypsin protease = biological target: T1, trypsin protease (Sus scrofa, UniProt P00761); test: Trypsin digestion of FITC-BSA-loaded PPSU20 vesicular nanogels; assay type: biochemical; conditions: overloaded 10 mg/mL sample; trypsin 2 μg/mL, 24 h, 37° C.
T1 construct: purchased Promega
Method: Trypsin digestion of FITC-BSA-loaded PPSU20 vesicular nanogels. DMSO solutions of PPSU20 (200 μL, 25 mg/mL) were hydrated using 800 μL of aqueous FITC-BSA solutions (0, 0.1, 1.0, 10.0 mg/mL). DMSO was removed by dialysis after self-assembly. Negatively stained FITC-BSA-loaded PPSU20 vesicular nanogels were characterized by TEM. After removal of unloaded FITC-BSA by three rounds of centrifugation and resuspension in phosphate-buffered saline, FITC-BSA-loaded PPSU20 vesicular nanogels were subjected to digestion with trypsin protease (2 μg/mL; Trypsin Gold, Promega) for 24 h at 37° C., 80 rpm. Undigested FITC-BSA-loaded PPSU20 vesicular nanogels (i.e. no protease treatment) were included as a control. After 24 h incubation with trypsin, FITC fluorescence (Ex=490 nm, Em=525 nm) was quantified in triplicate using a SpectraMax M3 microplate reader (Molecular Devices). The percentage increase in FITC fluorescence (i.e., 100×(F(+)−F(−))/F(−)) after proteolysis was calculated, where F(+) is the fluorescence after protease treatment and F(−) is referred to the fluorescence in the absence of protease treatment.

[6] = 10 μL/step, mass ratio (drug/PPSU20) 0.08
[7] = 100 μL/step, mass ratio (drug/PPSU20) 0.08
[8] = 10 μL/step, mass ratio (drug/PPSU20) 0.004
[9] = 100 μL/step, mass ratio (drug/PPSU20) 0.004

T1 sequence (P00761 9-231): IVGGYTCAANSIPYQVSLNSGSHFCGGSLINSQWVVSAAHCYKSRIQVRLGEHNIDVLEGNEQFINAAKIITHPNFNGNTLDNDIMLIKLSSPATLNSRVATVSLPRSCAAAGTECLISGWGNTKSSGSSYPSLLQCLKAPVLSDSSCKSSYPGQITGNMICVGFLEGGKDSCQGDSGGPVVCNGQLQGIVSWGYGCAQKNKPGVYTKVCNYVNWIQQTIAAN

Encapsulation efficiency [1, 6]: >96%
Encapsulation efficiency [1, 7]: >97%
Compound: COc1cccc2c1C(=O)c1c(O)c3c(c(O)c1C2=O)C[C@@](O)(C(=O)CO)C[C@@H]3O[C@H]1C[C@H](N)[C@H](O)[C@H](C)O1.Cl [DOX/HCl, doxorubicin hydrochloride]

Compound: CC1(C)C(/C=C/C=C/C=C/C=C2\N(CCCCS(=O)(=O)[O-])c3ccc4ccccc4c3C2(C)C)=[N+](CCCCS(=O)(=O)[O-])c2ccc3ccccc3c21.[Na+] [ICG]
biodistribution (organs) [2]: heart, brain and kidneys

Encapsulation efficiency [1, 8]: >96%
Encapsulation efficiency [1, 9]: >98%
Compound: CCN(CC)c1ccc2nc3c4ccccc4c(=O)cc-3oc2c1 [Nile red]

Solubility in water [3]: good water-solubility
Compound: CS(C)(=O)=O [dimethylsulfone]

encapsulated FITC-BSA accessible to cleavage (trypsin protease): 30-35%
Compound: Albumin: FITC-labeled albumin (FITC-BSA), a model protein; Table 1 entries 5 to 8
Encapsulation efficiency [1, 6]: >99%
Encapsulation efficiency ([1]; 10 μL/step, mass ratio (drug/PPSU20) 0.4): >99%
Encapsulation efficiency ([1]; 10 μL/step, mass ratio (drug/PPSU20) 0.8): >96%
Encapsulation efficiency ([1]; 10 μL/step, mass ratio (drug/PPSU20) 1.2): 83%
Encapsulation efficiency [1, 7]: >99%
Encapsulation efficiency ([1]; 100 μL/step, mass ratio (drug/PPSU20) 0.4): >99%
Encapsulation efficiency ([1]; 100 μL/step, mass ratio (drug/PPSU20) 0.8): >96%
Encapsulation efficiency ([1]; 100 μL/step, mass ratio (drug/PPSU20) 1.2): 80%
encapsulation capacity (w/w) ([1]; Table 1, entry 5 to 7): up to 80%
encapsulation of protein molecules from aqueous solutions ([1]; Table 1, entry 5 to 7): ~100%
EE ([1]; nanoparticles contained 20% more protein than polymer by mass (Table 1, entry 8)): Over 80%
Encapsulation efficiency ([4]; FITC-BSA-loaded vesicles, Em=518 nm): 97.8%
adsorption efficiency ([4]; preformed blank vesicles incubated with FITC-BSA overnight): 6.0%
protein by mass in nanogels ([5]; 10 mg/mL of protein, 3.6 mg FITC-BSA/5 mg PPSU): 72%
EE ([5]; in the presence of 10 mg/mL of protein): 45%
EE ([5]; loading of FITC-BSA at 0.1 mg/mL): approximately 100%
EE ([5]; loading of FITC-BSA at 1.0 mg/mL): approximately 100%

Encapsulation efficiency [1, 6]: >96%
Encapsulation efficiency [1, 7]: >96%
Compound: Dextran

Compound: fluorescein isothiocyanate [FITC]
Encapsulation efficiency [1, 8]: >99%
Encapsulation efficiency [1, 9]: >99%
